Laboratory results from paper doi:10.1101/2021.09.16.460650 (bioRxiv, 2021).

Target: the molecule itself
Assay: non-reducing SDS-PAGE with western blot

B1: N-terminally arginylated calreticulin (natural protein, human (endogenous in DLD-1), UniProt P27797 18-417, looked up)
chain: REPAVYFKEQFLDGDGWTSRWIESKHKSDFGKFVLSSGKFYGDEEKDKGLQTSQDARFYALSASFEPFSNKGQTLVVQFTVKHEQNIDCGGGYVKLFPNSLDQTDMHGDSEYNIMFGPDICGPGTKKVHVIFNYKGKNVLINKDIRCKDDEFTHLYTLIVRPDNTYEVKIDNSQVESGSLEDDWDFLPPKKIKDPDASKPEDWDERAKIDDPTDSKPEDWDKPEHIPDPDAKKPEDWDEEMDGEWEPPVIQNPEYKGEWKPRQIDNPDYKGTWIHPEIDNPEYSPDPSIYAYDNFGVLGLDLWQVKSGTIFDNFLITNDEAYAEEFGNETWGVTKAAEKQMKDKQDEEQRLKEEEEDKKRKEEEEAEDKEDDEDKDEDEEDEEDKEEDEEEDVPGQAKDEL
modifications: arginyl group added at the mature (signal sequence removed) NH2-terminus, Glu-18
stoichiometry N: 2

B2: calreticulin (natural protein, human (endogenous in DLD-1), UniProt P27797 18-417, looked up)
chain: EPAVYFKEQFLDGDGWTSRWIESKHKSDFGKFVLSSGKFYGDEEKDKGLQTSQDARFYALSASFEPFSNKGQTLVVQFTVKHEQNIDCGGGYVKLFPNSLDQTDMHGDSEYNIMFGPDICGPGTKKVHVIFNYKGKNVLINKDIRCKDDEFTHLYTLIVRPDNTYEVKIDNSQVESGSLEDDWDFLPPKKIKDPDASKPEDWDERAKIDDPTDSKPEDWDKPEHIPDPDAKKPEDWDEEMDGEWEPPVIQNPEYKGEWKPRQIDNPDYKGTWIHPEIDNPEYSPDPSIYAYDNFGVLGLDLWQVKSGTIFDNFLITNDEAYAEEFGNETWGVTKAAEKQMKDKQDEEQRLKEEEEDKKRKEEEEAEDKEDDEDKDEDEEDEEDKEEDEEEDVPGQAKDEL
stoichiometry N: 2
